Experimental data as given in patent publication US10865391B2, “Glutamate dehydrogenase mutants and their application in preparation of L-phosphinothricin” (ZHEJIANG UNIVERSITY, priority 2018, dated 2020).

Assay: Standard enzyme activity measurement toward PPO, crude enzyme (per volume fermentation broth)
Assay type: biochemical
Conditions: toward PPO; for Fold change: enzyme activity of mutant versus wild type
Procedure: The preserved recombinant E. coli is streaked onto the plate for activation. Single colonies are picked and inoculated into 5 mL LB liquid medium containing 50 μg/mL kanamycin and cultured at 37° C. for 12 h. The culture is transferred to 50 mL fresh LB liquid medium containing 50 μg/mL kanamycin at a 2% inoculum, and then incubated at 37° C. until the OD600 reaches 0.6; after that, add IPTG to a final concentration of 0.5 mM, and then proceed with induction culture under the temperature of 18° C. for 16 h.
After the cultivation, the culture is centrifuged at 10000 rpm for 10 min; discard supernatant, and collect cells. The harvested cells are washed for 2 times using pH 7.5 50 mM phosphate buffer. After that, the cells are re-suspend into the pH 7.5 phosphate buffer and disrupted ultrasonically (400W for 30 times, Ultrasonic time is 3 s, and the interval is 7 s). The cell disrupted solution is centrifuged at 12000 g for 5 min at 4° C. to remove the precipitate, and the supernatant obtained is the crude enzyme containing recombinant glutamate dehydrogenase
The standard enzyme activity measurement system: Appropriate amount of enzyme, 100 mM substrate, 10 mM coenzyme (NADH or NADPH), 500 mM NH4^+ ((NH4)2SO4); total system volume is up to 400 μL; reaction medium is pH 7.5 phosphate buffer. 35° C. reaction for 10 min; after that, add 40 uL 5 M NaOH to terminate reaction.
Definition of enzyme activity unit: The quantity of enzyme as required by generation of 1 μmol L-phosphinothricin per minute under standard reaction conditions.
Proceed with induction culture of constructed mutants, and prepare crude enzyme solution.

[1] = crude enzyme, standard system, N.D. = no detectable activity

| Molecule | Enzyme activity of mutants (U/mL) [1] [U/mL] | Enzyme activity of wild type (U/mL) [1] [U/mL] | Fold change |
| --- | --- | --- | --- |
| BmGluDH-A156G: BmGluDH mutant A156G, SEQ ID NO. 13 (protein, Bacillus megaterium glutamate dehydrogenase mutant) MVADKMQDSKNSQEEKHDVLKSTQTVIHKALEKLGYPDEVYELLKEPLRMMTVKIPVRMDDGSVKIFTGHRAQHNDAVGPTKGGIRFHPNVTEKEVKALSIWMSLKCGIVDLPYGGGKGGIVCDPRNMSFGELERLSRGYVRAISQIVGPTKDIPGPDVFTNSQIMAWMMDEYSRIDEFNSPGFITGKPLVLGGSHGRETATAKGVTICIREAAKKRGIELQGARVVVQGFGNAGSFLAKFMHDAGAKIVGISDAYGALHDPNGLDIDYLLDRRDSFGTVTKLFNNTISNKELLELDCDILVPAAIENQITEENAHNIQASIVVEAANGPTTLEATRILSERGILLVPDVLASAGGVTVSYFEWVQNNQGYYWTEEEVEEKLEKVMVKSFNNIYETSTTRKVDMRLAAYMIGVRKMAEGSRFRGWI | 0.34 |  |  |
| CgGluDH: wild type glutamate dehydrogenase from Corynebacterium glutamicum, NP_601279.1, NADPH-specific (protein, UniProt P31026 1-447, looked up) NADP-specific glutamate …: MTVDEQVSNYYDMLLKRNAGEPEFHQAVAEVLESLKIVLEKDPHYADYGLIQRLCEPERQLIFRVPWVDDQGQVHVNRGFRVQFNSALGPYKGGLRFHPSVNLGIVKFLGFEQIFKNSLTGLPIGGGKGGSDFDPKGKSDLEIMRFCQSFMTELHRHIGEYRDVPAGDIGVGGREIGYLFGHYRRMANQHESGVLTGKGLTWGGSLVRTEATGYGCVYFVSEMIKAKGESISGQKIIVSGSGNVATYAIEKAQELGATVIGFSDSSGWVHTPNGVDVAKLREIKEVRRARVSVYADEVEGATYHTDGSIWDLKCDIALPCATQNELNGENAKTLADNGCRFVAEGANMPSTPEAVEVFRERDIRFGPGKAANAGGVATSALEMQQNASRDSWSFEYTDERLQVIMKNIFKTCAETAAEYGHENDYVVGANIAGFKKVADAMLAQGVI |  | 0.011 |  |
| CgGluDH-V376A: CgGluDH mutant V376A, SEQ ID NO. 4 (protein, Corynebacterium glutamicum glutamate dehydrogenase mutant) MTVDEQVSNYYDMLLKRNAGEPEFHQAVAEVLESLKIVLEKDPHYADYGLIQRLCEPERQLIFRVPWVDDQGQVHVNRGFRVQFNSALGPYKGGLRFHPSVNLGIVKFLGFEQIFKNSLTGLPIGGGKGGSDFDPKGKSDLEIMRFCQSFMTELHRHIGEYRDVPAGDIGVGGREIGYLFGHYRRMANQHESGVLTGKGLTWGGSLVRTEATGYGCVYFVSEMIKAKGESISGQKIIVSGSGNVATYAIEKAQELGATVIGFSDSSGWVHTPNGVDVAKLREIKEVRRARVSVYADEVEGATYHTDGSIWDLKCDIALPCATQNELNGENAKTLADNGCRFVAEGANMPSTPEAVEVFRERDIRFGPGKAANAGGAATSALEMQQNASRDSWSFEYTDERLQVIMKNIFKTCAETAAEYGHENDYVVGANIAGFKKVADAMLAQGVI | 2.48 |  | 225 |
| CgGluDH-A166G: CgGluDH mutant A166G, SEQ ID NO. 3 (protein, Corynebacterium glutamicum glutamate dehydrogenase mutant) MTVDEQVSNYYDMLLKRNAGEPEFHQAVAEVLESLKIVLEKDPHYADYGLIQRLCEPERQLIFRVPWVDDQGQVHVNRGFRVQFNSALGPYKGGLRFHPSVNLGIVKFLGFEQIFKNSLTGLPIGGGKGGSDFDPKGKSDLEIMRFCQSFMTELHRHIGEYRDVPGGDIGVGGREIGYLFGHYRRMANQHESGVLTGKGLTWGGSLVRTEATGYGCVYFVSEMIKAKGESISGQKIIVSGSGNVATYAIEKAQELGATVIGFSDSSGWVHTPNGVDVAKLREIKEVRRARVSVYADEVEGATYHTDGSIWDLKCDIALPCATQNELNGENAKTLADNGCRFVAEGANMPSTPEAVEVFRERDIRFGPGKAANAGGVATSALEMQQNASRDSWSFEYTDERLQVIMKNIFKTCAETAAEYGHENDYVVGANIAGFKKVADAMLAQGVI | 0.34 |  | 31 |
| PeGluDH-V375A: PeGluDH mutant V375A, SEQ ID NO. 6 (protein, Pseudomonas entomophila glutamate dehydrogenase mutant) MIESVDHFLARLQQRDPAQPEFHQAVEEVLRSLWPFLEQNPHYLEAGILERMVEPERAVLFRVSWVDDQGKVQVNRGYRIQMSSAIGPYKGGLRFHPSVNLGVLKFLAFEQVFKNSLTSLPMGGGKGGSDFDPKGKSDAEVMRFCQAFMSELYRHIGADLDVPAGDIGVGAREIGFLFGQYKRLANQFTSVLTGKGMTYGGSLIRPEATGYGCVYFAEEMLKRQEQRIDGRRVAISGSGNVAQYAARKVMDLGGKVISLSDSEGTLFCEAGLTDEQWDALMELKNVKRGRISELAGRFGLEFRKGQTPWSLACDIALPCATQNELNADDARTLLRNGCICVAEGANMPTTLDAVDIFIEAGILYAPGKASNAGGAAVSGLEMSQNAMRLLWTAGEVDSKLHHIMQSIHHVCVHYGEEADGRINYVKGANIAGFVKVADAMLAQGVV | 11.06 |  | 107 |
| GsGluDH-A153G: GsGluDH mutant A153G, SEQ ID NO. 9 (protein, Geobacillus stearothermophilus glutamate dehydrogenase mutant) MAADKHTEEKGQQDDVLASTQIVIHRALEKLGYPEEVYELLKEPIRVLTVRIPVRMDDGSVKIFTGYRAQHNDAVGPTKGGVRFHPDVTEREVKALSIWMSLKCGIVDLPYGGGKGGIVCDPRTMSFRELERLSRGYVRAISQIVGPTKDIPGPDVFTNSQIMAWMMDEYSRIREFDSPGFITGKPLVLGGSHGRETATAKGVTICIREAAKKRGLSLEGARVVVQGFGNAGSYLAKFLHDAGAKVVGISDVYGALYDPNGLDIDYLLERRDSFGTVTKLFKNTISNKELLELDCDILVPAAIENQITAENAPRIKASIVVEAANGPTTLEATEILTQRGILLVPDVLASAGGVTVSYFEWVQNNQGYYWTEEEVEQRLEKVMVKAFNNVYEMAQTRRVDMRLAAYMVGVRKMAEACRFRGWV | 0.04 |  |  |
| LsGluDH-A144G: LsGluDH mutant A144G, SEQ ID NO. 15 (protein, Lysinibacillus sphaericus glutamate dehydrogenase mutant) MSENLNLFTSTQDVIQDALNKLGYDEAMYELLKEPLRMLQVRIPVKMDDGTTKVFTGYRAQHNDAVGPTKGGVRFHPQVSEEEVKALSMWMTLKCGIVDLPYGGGKGGVICDPRQMSMGEIERLSRGYVRAVSQIVGPTKDIPGPDVFTNAQIMAWMMDEYSRMDEFNSPGFITGKPLVLGGSQGRDRATAQGVTIVIEEAAKKRGIDIKGARVVIQGFGNAGSFLAKFMHDLGAKVIGISDAYGALHDPEGLDIDYLLDRRDSFGTVTTLFENTISNKELLELDCDILVPAAIENQITADNAHNIKADIVVEAANGPTTAEATKILTERGILLVPDVLASAGGVTVSYFEWVQNNQGYYWTEEEVEERLYKKMVEAFDNVYTTATTRNINMRLAAYMVGVRRTAEASRFRGWV | 1.69 |  |  |
| BsGluDH-A154G: BsGluDH mutant A154G, SEQ ID NO. 11 (protein, Bacillus subtilis glutamate dehydrogenase mutant) MSAKQVSKDEEKEALNLFLSTQTIIKEALRKLGYPGDMYELMKEPQRMLTVRIPVKMDNGSVKVFTGYRSQHNDAVGPTKGGVRFHPEVNEEEVKALSIWMTLKCGIANLPYGGGKGGIICDPRTMSFGELERLSRGYVRAISQIVGPTKDIPGPDVYTNSQIMAWMMDEYSRLREFDSPGFITGKPLVLGGSQGRETATAQGVTICIEEAVKKKGIKLQNARIIIQGFGNAGSFLAKFMHDAGAKVIGISDANGGLYNPDGLDIPYLLDKRDSFGMVTNLFTDVITNEELLEKDCDILVPAAISNQITAKNAHNIQASIVVEAANGPTTIDATKILNERGVLLVPDILASAGGVTVSYFEWVQNNQGYYWSEEEVAEKLRSVMVSSFETIYQTAATHKVDMRLAAYMTGIRKSAEASRFRGWV | 0.50 |  |  |
| LsGluDHp-V386A: LsGluDHp mutant V386A, SEQ ID NO. 8 (protein, Lysinibacillus sphaericus glutamate dehydrogenase mutant) MTITTVSNEQLAKEYVDGVFEQLKQQNCHQAEFLQAAEEIFISLVPVFVQHPEYIKANILSRIVEPDRIISFRVAWQDDHNQVQVNRGYRVQYSNVMGPYKGGLRFHPSVNESIIKFLGFEQIFKNALTGQPIGGGKGGSNFDPKGKSDSEIMRFCQAFMTELYRHIGPDVDVPAGDIGVGAREVGYLWGQYKRLTKASESGVLTGKTPGYGGSLARKEATGYGTVYFVNEMLKDVNDSFEGKTVVVSGSGNVSTYAIEKAQQYGAKVVACSDSSGYIYDPEGLDLDVIKEIKEVKGDRISTYVSYRPNATFTNGCTGIWTIPCDIALPCATQNEINGESARTLISNGVKAIGEGANMPSDLEAINEFLNAGVLFGPAKAANAGGAAVSALEMAQDSSRVFWSFEEVDAKLHQIMKDIYSDSKAAAEKYGFPGNLVMGANIAGFIKVADGMLTEGIY | 12.34 |  | 588 |
